In patent EP1900813A1, “NOVEL PHYSIOLOGICAL SUBSTANCE NESFATIN, SUBSTANCE RELEVANT THERETO, AND USE OF THE SUBSTANCES” (Teijin Pharma Limited, priority 2005, dated 2008):
No end group written: not given here.

Key:
[1] = tested on: nesfatin; experiment: Binding specificity of anti-nesfatin-1 antibody: Western blotting of rat brain extracts after pre-reaction with peptides; settings: 5 µg peptide per 1 µg anti-nesfatin-1 antibody, room temperature, 1 hour
Description: Western blotting analysis was carried out by the method described in Working Example 3 with the primary antibody being changed from anti-NAP polyclonal antibody to anti-nesfatin-1 antibody.

[2] = tested on: nesfatin; experiment: Specificity of immunohistochemical stain of rat hypothalamus with anti-nesfatin-1 antibody after pre-reaction with peptides; assay type: binding; settings: 5 µg peptide per 1 µg antibody
Description: In a method similar to that in Working Example 4, immunohistochemical stain was carried out on tissue sections of the rat brain each containing arcuate nucleus and paraventricular nucleus, in which anti-nesfatin-1 antibody (nesfatin-1 IgG; Working Example 10) was used in stead of a anti-NAP polyclonal antibody as the primary antibody.

[3] = Intraventricular administration of nesfatin-1 alone or leptin alone, amount of food intake; assay type: in vivo, rat; settings: 5 pmol nesfatin-1 alone, third ventricle; vs control group (physiological saline)
Description: The experimental condition was similar to that in Working Example 12, and for a group that received 5 pmol of nesfatin-1 alone into the third ventricle of the rat brain immediately before the start of the dark period and a group that received 5 pmol of nesfatin-1 and 8 µg of anti-nesfatin-1 antibody (nesfatin-1 IgG), the amount of food intake for 1 hour after administration was measured and compared to that for the control group (physiological saline alone was administered). Also, for a group that received only leptin (Rat leptin: R & D Systems, 598-LP-01M) (1 µg) which is known to have an activity of suppressing food intake by intraventricular administration and a group that received leptin and anti-nesfatin-1 antibody, its effect on food intake was also studied.

[4] = Continuous administration of nesfatin-1 into the rat ventricle, weight of adipose tissues and muscle; assay type: in vivo; settings: 5 pmol per day, third ventricle, osmotic pump, 10 days; vs physiological saline
Description: Nesfatin-1 (5 pmol per day) or physiological saline alone (the control group) was administered into the third ventricle of a rat using an osmotic pump for 10 consecutive days (5 and 4 rats were used per group). Intraventricular administration into rats by the osmotic pump was carried out in a manner similar to that in Working Example 13.
After the administration of nesfatin-1 or physiological saline alone for 10 days, each rat was sacrificed, dissected to excise all of the abdominal subcutaneous adipose tissue, the epididymal adipose tissue (these are white adipose tissue) and the retroperitoneal brown adipose tissue, and the weight of them was measured. Also, the gastrocnemial muscles of the bilateral hind legs were harvested and the weight of them was measured. From the weight of the tissues measured, their ratio to the body weight of each individual was determined (tissue weight/body weight, mg/g). For testing of significant difference, analysis of variance was used.

[5] = Continuous intraventricular administration of nesfatin-1 by osmotic pump, amount of food intake and body weight; assay type: in vivo, Wistar rats; settings: 5 pmol per day into the third ventricle, 10 consecutive days, vs physiological saline
Description: The administration of nesfatin-1 was carried out into the ventricle by an osmotic pump for 10 consecutive days. Among 8 week-old male Wistar rats (purchased from Nippon SLC), those individuals weighing 200-250 g were used. The rats received intraperitoneal administration of 40 mg/kg body weight of pentobarbital sodium for anesthesia. After the hair was removed from the head, they were fixed in a brain stereotaxic apparatus (David Kopf Instruments, Model 962) and the scalp was incised and a 23G needle (guide cannula) was implanted so that the tip reaches the third ventricle (2.5 mm behind the bregma, 9.5 mm from the surface). One week after implanting the guide cannula, the animals were subjected to the experiment. The osmotic pump used was Alzet's Model 2002. […] The measurement of the amount of food intake started from the day after the cannula and the osmotic pump were implanted, and the weight of the residual food was measured at 9 a.m. every day, and by determining the difference from the weight of the food on the previous day, the amount of food intake of the day (24 hours) was calculated. From day 6 after the start of administration, body weight was measured at the time of measuring the amount of food intake, and changes in body weight were also recorded.

[6] = Single administration of nesfatin-1, nesfatin-2, nesfatin-3 or nesfatin-2/3 into the third ventricle, amount of food intake; assay type: in vivo, Wistar rats
Description: Samples used for intracerebral administration were PBS alone (vehicle group), or nesfatin-1, nesfatin-2, nesfatin-3 or nesfatin-2/3 prepared in Working Example 10 each dissolved in PBS, and 25 pmol was administered per individual into the third ventricle immediately before the dark period. Rats used were Wistar rats (purchased from Nippon SLC) and were housed as in Working Example 6, and among 8-9 week-old male Wistar rats, those individuals weighing 200-250 g were selected and used (N=5). The technique of intraventricular administration and the measurement of the amount of food intake in rats were carried out in a method similar to those in Workig Example 6. In the measurement of the amount of food intake, the reduced amount of food at 1 hour after administration (0-1 hr) and […] (1-3 hrs) was determined as food intake.
In the same condition above, 1, 5 or 25 pmol of nesfatin-1 as a sample was administered per rat individual into the third ventricle immediately before the dark period. In this experiment, the amount of food intake was determined at 1 hour after administration (0-1 hr).
The experimental condition was similar to that in Working Example 12, and 5 pmol of nesfatin-1 was administered into the third ventricle of the rat brain immediately before the start of the dark period, the amount decreased of the food (the amount of food intake) during 1 hour immediately after administration (0-1 hr), during 2 hours from 1 hour after the administration (1-3 hr), during 3 hours from 3 hours after the administration (3-6 hr), and during 6 hours from 6 hours after the administration (6-12 hr) was measured as the amount of food intake. As the control group, the amount of food intake by individuals that received physiological saline alone was measured.

[7] = rat brain tissue containing the arcuate nucleus
[8] = rat brain tissue section containing the paraventricular nucleus

Molecule: MCH: Human Melanin-Concentrating Hormone; Peptide Institute, Inc., 4369-v
- 47.5 kd band of nesfatin in Western blotting after pre-reaction of anti-nesfatin-1 antibody with the peptide [1]: did not disappear

Molecule: Orexin-A: Human, Rat, Mouse, Bovine Orexin-A; Peptide Institute, Inc., 4346-s (QPLPDCCRQKTCSCRLYELLHGAGNHAAGILTL)
- 47.5 kd band of nesfatin in Western blotting after pre-reaction of anti-nesfatin-1 antibody with the peptide [1]: did not disappear

Molecule: NPY: Human, Rat Neuropeptide Y; Peptide Institute, Inc., 4158-v
- 47.5 kd band of nesfatin in Western blotting after pre-reaction of anti-nesfatin-1 antibody with the peptide [1]: did not disappear
- immunological stain with anti-nesfatin-1 antibody after pre-reaction with the peptide [2, 7]: does not disappear
- immunological stain with anti-nesfatin-1 antibody after pre-reaction with the peptide [2, 8]: does not disappear

Molecule: CART: Rat Cocaine- and Amphetamine-Regulated Transcript 55-102; Peptide Institute, Inc., 4351-s (IPIYEKKYGQVPMCDAGEQCAVRKGARIGKLCDCPRGTSCNSFLLKCL; ends and bridges not checked; cysteine pairing not given here)
- immunological stain with anti-nesfatin-1 antibody after pre-reaction with the peptide [2, 7]: does not disappear
- immunological stain with anti-nesfatin-1 antibody after pre-reaction with the peptide [2, 8]: does not disappear

B1: recombinant nesfatin: recombinant matured mouse nesfatin (SEQ ID NO: 26) from E. coli GST-NEFA fusion protein treated with protease (protein)
chain: GSPIDVDKTKVHNTEPVENARIEPPDTGLYYDEYLKQVIEVLETDPHFREKLQKADIEEIRSGRLSQELDLVSHKVRTRLDELKRQEVGRLRMLIKAKLDALQDTGMNHHLLLKQFEHLNHQNPNTFESRDLDMLIKAATADLEQYDRTRHEEFKKYEMMKEHERREYLKTLSEEKRKEEESKFEEMKRKHEDHPKVNHPGSKDQLKEVWEETDGLDPNDFDPKTFFKLHDVNNDGFLDEQELEALFTRELEKVYNPQNAEDDMIEMEEERLRMREHVMSEIDNNKDRLVTLEEFLRATEKKEFLEPDSWETLDQQQLFTEDELKEYESIIAIQENELKKRAEELQKQKEDLQRQHDHLEAQKQEYHQAVQHLEQKKLQQGIAPSGPAGELKFEPHT
- amount of food intake for 1 hour after administration [3]: significantly decreased

B2: nesfatin-1: peptide of 82 residues, amino acid Nos. 25 to 106 of nesfatin; rat nesfatin-1 (SEQ ID NO: 15) by solid-phase synthesis (peptide, UniProt Q9JI85 25-106, looked up)
Nesfatin-1: VPIDVDKTKVHNVEPVESARIEPPDTGLYYDEYLKQVIEVLETDPHFREKLQKADIEEIRSGRLSQELDLVSHKVRTRLDEL
modifications: Nesfatin-1
- ratio of tissue weight to body weight, abdominal subcutaneous adipose tissue [4]: significant decreases in the ratio of tissue weight to body weight
- ratio of tissue weight to body weight, epididymal adipose tissue [4]: significant decreases in the ratio of tissue weight to body weight
- ratio of tissue weight to body weight, mesenteric adipose tissue [4]: significant decreases in the ratio of tissue weight to body weight
- ratio of tissue weight to body weight, retroperitoneal adipose tissue [4]: tended to decrease but no significant difference
- total tissue weight to the body weight, brown adipose tissue [4]: no significant difference
- total tissue weight to the body weight, gastrocnemial muscle [4]: no significant difference
- immunological stain with anti-nesfatin-1 antibody after pre-reaction with the peptide [2, 7]: the stain disappears
- immunological stain with anti-nesfatin-1 antibody after pre-reaction with the peptide [2, 8]: the stain disappears
- amount of food intake of the day (24 hours) [5]: decrease in the amount of food intake was noted from day 1
- rate of increase in body weight [5]: significantly declined
- amount of food intake ([6]; 5 pmol, third ventricle, 0-1 hr, vs saline group (0)): significant decrerased amount of food intake
- amount of food intake ([6]; 25 pmol into the third ventricle immediately before the dark period, 0-1 hr, vs control (PBS)): marked effect on the suppression of feeding
- amount of food intake ([6]; 25 pmol into the third ventricle immediately before the dark period, 1-3 hr, vs control (PBS)): marked effect on the suppression of feeding
- amount of food intake ([6]; 25 pmol, third ventricle, 0-1 hr, dose experiment, vs saline group (0)): significant decrerased amount of food intake
- amount of food intake ([6]; 1, 5 or 25 pmol per rat, third ventricle, 0-1 hr, dose relation vs saline group (0)): decreased amount of food intake, with the increased amount of the administered nesfation-1
- amount of food intake ([6]; Working Example 27, 5 pmol, third ventricle, 0-1 hr, p<0.01 vs control): Significant decreases in the amount of food intake
- amount of food intake ([6]; Working Example 27, 5 pmol, third ventricle, 1-3 hr, p<0.01 vs control): Significant decreases in the amount of food intake
- amount of food intake ([6]; Working Example 27, 5 pmol, third ventricle, 3-6 hr, p<0.01 vs control): Significant decreases in the amount of food intake
- amount of food intake ([6]; Working Example 27, 5 pmol, third ventricle, 6-12 hr, p<0.01 vs control): an increase in the amount of food intake
